The series deals with T1, Dhr1 isolated C-terminal domain (CTD) (Saccharomyces cerevisiae, UniProt Q04217 1176-1267).
T1 sequence: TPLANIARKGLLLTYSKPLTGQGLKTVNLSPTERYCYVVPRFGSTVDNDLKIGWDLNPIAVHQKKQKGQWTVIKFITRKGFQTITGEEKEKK
As to the kind of experiment: not stated.

In the case of UUUUUUUUUUUUUUU (ssRNA) [poly(U)15], the binding result is reported as “no binding”.

Consider AAAAAAAAAAAAAAA (ssRNA) [poly(A)15], for which the binding result is reported as “no binding”.

Source of the values: PMC6698733.
